Assay results taken from the supplement of paper PMC10065799, “High-throughput profiling of sequence recognition by tyrosine kinases and SH2 domains using bacterial peptide display” (eLife, 2023).

Columns and labels:
SHP2-C SH2 = test: SH2 binding enrichment of the phosphorylated peptide, bacterial display (enrichment ratio); higher = better substrate or ligand; peptides without Tyr show the background
Grb2 SH2 = Grb2 SH2 (UniProt P62993); test: as above
c-Src SH2 = test: as above
EPHB2 = EPHB2 (UniProt P29323); test: phosphorylation enrichment, bacterial display (enrichment ratio); higher = better substrate or ligand; peptides without Tyr show the background
EPHB2, sequence (P29323 whole entry, looked up): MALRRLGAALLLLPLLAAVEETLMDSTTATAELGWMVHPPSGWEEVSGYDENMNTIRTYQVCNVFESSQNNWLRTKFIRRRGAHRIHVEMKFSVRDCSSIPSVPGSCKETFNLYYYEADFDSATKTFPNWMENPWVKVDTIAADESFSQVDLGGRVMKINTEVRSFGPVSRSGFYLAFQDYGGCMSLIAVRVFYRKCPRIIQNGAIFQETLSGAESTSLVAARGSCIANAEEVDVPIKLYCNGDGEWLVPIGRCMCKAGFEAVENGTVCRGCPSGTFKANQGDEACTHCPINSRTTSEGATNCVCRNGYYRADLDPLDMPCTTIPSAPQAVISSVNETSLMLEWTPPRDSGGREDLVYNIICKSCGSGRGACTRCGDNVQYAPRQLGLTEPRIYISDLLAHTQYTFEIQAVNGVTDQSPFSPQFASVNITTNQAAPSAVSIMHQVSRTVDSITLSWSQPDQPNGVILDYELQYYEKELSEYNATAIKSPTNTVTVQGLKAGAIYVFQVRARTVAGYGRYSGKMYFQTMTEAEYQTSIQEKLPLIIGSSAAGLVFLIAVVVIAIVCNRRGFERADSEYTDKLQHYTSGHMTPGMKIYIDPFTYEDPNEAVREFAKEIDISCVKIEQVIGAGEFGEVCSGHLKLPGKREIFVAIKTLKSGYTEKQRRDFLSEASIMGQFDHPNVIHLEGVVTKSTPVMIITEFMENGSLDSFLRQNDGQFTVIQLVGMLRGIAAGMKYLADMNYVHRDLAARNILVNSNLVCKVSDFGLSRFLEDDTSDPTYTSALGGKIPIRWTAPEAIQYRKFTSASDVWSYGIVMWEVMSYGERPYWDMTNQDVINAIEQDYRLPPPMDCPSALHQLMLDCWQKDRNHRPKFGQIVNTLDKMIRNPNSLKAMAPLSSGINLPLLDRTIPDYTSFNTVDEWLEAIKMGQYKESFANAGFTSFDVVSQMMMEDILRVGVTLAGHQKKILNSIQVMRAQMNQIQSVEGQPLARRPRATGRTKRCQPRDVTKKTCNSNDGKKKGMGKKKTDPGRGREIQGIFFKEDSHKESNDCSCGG

EPHB1 = EPHB1 (UniProt P54762); test: as above
EPHB1, sequence (P54762 whole entry, looked up): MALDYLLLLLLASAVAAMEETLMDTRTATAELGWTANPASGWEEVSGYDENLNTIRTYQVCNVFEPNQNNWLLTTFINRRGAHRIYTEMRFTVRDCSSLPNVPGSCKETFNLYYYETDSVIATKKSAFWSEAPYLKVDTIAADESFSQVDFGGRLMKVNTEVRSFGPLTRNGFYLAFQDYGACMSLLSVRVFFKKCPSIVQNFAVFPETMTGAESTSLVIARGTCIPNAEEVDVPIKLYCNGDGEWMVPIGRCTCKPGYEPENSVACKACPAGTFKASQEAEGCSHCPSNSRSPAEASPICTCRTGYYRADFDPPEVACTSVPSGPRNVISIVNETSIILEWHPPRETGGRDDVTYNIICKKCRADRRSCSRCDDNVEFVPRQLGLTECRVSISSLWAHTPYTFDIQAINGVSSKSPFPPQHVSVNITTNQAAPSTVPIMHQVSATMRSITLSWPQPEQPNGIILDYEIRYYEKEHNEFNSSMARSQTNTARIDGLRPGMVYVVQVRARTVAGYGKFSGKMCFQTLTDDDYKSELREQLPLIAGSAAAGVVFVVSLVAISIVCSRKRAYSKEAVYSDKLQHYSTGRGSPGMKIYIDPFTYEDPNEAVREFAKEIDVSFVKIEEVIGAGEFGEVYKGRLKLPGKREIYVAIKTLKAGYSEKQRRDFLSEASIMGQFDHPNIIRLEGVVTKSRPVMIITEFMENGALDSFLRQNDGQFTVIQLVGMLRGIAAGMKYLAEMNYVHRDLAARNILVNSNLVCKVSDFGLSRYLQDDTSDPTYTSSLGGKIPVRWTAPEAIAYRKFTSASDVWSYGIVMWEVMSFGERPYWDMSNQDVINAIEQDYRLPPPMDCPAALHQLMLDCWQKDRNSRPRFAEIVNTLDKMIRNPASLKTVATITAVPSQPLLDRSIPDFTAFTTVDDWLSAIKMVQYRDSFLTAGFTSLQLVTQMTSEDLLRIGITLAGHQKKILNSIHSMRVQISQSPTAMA

MERTK = MERTK (UniProt Q12866); test: as above
MERTK, sequence (Q12866 whole entry, looked up): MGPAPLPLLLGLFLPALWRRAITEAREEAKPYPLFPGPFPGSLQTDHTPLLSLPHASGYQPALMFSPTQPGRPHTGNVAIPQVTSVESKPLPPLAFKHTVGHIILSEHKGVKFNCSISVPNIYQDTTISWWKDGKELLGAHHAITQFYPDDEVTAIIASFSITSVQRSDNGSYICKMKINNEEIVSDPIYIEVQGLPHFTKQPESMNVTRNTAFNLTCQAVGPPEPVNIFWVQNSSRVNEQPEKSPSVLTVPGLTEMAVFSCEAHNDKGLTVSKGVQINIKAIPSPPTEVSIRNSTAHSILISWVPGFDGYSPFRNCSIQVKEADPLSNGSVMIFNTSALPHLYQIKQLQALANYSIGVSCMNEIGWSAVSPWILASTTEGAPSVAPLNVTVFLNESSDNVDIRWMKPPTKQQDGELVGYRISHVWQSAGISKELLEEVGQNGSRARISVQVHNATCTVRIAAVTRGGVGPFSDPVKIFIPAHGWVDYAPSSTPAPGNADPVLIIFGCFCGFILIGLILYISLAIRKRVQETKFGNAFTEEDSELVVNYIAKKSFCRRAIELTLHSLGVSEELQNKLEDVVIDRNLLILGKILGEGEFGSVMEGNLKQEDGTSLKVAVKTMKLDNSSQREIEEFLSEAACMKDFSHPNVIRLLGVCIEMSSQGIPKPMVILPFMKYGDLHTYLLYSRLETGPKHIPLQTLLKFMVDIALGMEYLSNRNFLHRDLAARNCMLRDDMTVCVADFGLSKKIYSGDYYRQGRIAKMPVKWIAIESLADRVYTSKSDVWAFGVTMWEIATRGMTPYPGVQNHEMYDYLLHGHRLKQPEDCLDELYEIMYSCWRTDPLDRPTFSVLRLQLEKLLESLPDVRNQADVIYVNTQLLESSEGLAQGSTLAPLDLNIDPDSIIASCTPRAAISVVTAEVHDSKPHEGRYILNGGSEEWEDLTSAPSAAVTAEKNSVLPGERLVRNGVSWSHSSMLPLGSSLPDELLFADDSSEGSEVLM

Hck = Hck (UniProt P08631); test: as above
c-Src = test: as above
Fes = Fes (UniProt P07332); test: as above
Fes, sequence (P07332 whole entry, looked up): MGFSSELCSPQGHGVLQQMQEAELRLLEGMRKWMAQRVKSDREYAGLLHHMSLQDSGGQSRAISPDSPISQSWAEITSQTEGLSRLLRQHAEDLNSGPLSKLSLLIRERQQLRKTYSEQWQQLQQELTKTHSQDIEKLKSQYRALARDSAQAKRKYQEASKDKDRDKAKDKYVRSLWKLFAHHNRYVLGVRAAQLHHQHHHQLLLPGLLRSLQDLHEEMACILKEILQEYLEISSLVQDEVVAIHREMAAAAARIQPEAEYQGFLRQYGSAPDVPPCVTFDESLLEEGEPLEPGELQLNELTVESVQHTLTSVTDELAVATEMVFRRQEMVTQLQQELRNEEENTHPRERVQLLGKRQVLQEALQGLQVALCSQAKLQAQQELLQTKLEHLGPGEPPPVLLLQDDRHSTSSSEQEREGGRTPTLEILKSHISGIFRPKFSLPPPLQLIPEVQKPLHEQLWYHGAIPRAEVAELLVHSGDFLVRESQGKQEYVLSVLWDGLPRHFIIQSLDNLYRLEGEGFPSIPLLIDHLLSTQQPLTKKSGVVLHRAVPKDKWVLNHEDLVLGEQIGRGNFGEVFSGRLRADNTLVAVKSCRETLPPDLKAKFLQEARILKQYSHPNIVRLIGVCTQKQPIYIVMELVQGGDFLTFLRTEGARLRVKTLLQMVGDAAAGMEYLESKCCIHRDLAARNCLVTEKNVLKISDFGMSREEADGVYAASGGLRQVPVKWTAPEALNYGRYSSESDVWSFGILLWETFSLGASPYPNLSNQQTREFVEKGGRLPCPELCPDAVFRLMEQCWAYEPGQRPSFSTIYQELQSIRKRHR

FGFR3 = FGFR3 (UniProt P22607); test: as above
FGFR3, sequence (P22607 whole entry, looked up): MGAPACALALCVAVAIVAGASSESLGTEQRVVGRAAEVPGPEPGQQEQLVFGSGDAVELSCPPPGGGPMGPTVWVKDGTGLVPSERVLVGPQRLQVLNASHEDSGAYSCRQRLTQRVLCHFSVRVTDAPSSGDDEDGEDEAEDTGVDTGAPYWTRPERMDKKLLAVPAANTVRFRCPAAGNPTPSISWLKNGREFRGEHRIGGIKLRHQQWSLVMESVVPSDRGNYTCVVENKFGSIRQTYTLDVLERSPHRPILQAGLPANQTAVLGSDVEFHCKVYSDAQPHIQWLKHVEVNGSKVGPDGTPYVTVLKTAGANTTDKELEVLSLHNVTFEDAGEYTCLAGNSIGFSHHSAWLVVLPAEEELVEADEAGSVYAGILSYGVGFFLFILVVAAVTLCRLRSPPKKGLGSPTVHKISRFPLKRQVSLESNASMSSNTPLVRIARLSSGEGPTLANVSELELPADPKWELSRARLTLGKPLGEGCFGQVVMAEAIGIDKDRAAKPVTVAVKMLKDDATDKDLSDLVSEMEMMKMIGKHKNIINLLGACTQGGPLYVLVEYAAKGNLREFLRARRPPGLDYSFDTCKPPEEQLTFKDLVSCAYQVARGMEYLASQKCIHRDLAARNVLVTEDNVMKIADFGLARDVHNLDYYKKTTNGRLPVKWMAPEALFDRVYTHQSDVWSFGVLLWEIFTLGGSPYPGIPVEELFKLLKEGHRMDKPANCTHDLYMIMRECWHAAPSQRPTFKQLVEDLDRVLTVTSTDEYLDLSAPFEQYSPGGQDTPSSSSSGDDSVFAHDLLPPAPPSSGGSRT

Fer (mouse) = test: as above
FGFR1 = FGFR1 (UniProt P11362); test: as above
Fyn = Fyn (UniProt P06241); test: as above
c-Abl (mouse) = test: as above
AncSZ = test: as above
Jak2 = Jak2 (UniProt O60674); test: as above
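Throughout, for SH2 binding enrichment of the phosphorylated peptide, bacterial display: peptide library displayed on the E. coli surface as eCPX fusions, selected cells deep-sequenced, score is each peptide's frequency after selection divided by its frequency in the input.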
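Throughout, for phosphorylation enrichment, bacterial display: 11-residue human phosphosite peptides and single-mutation variants displayed on the E. coli surface, counted by deep sequencing, each peptide's frequency after selection divided by its frequency in the unselected input library; frequency after pTyr selection over input frequency; kinase dosed for 20-30% of maximal phosphorylation in three min.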

Sequence | SH2 binding enrichment (SHP2-C SH2) | SH2 binding enrichment (Grb2 SH2) | SH2 binding enrichment (c-Src SH2) | phosphorylation enrichment (EPHB2) | phosphorylation enrichment (EPHB1) | phosphorylation enrichment (MERTK) | phosphorylation enrichment (Hck) | phosphorylation enrichment (c-Src) | phosphorylation enrichment (Fes) | phosphorylation enrichment (FGFR3) | phosphorylation enrichment (Fer (mouse)) | phosphorylation enrichment (FGFR1) | phosphorylation enrichment (Fyn) | phosphorylation enrichment (c-Abl (mouse)) | phosphorylation enrichment (AncSZ) | phosphorylation enrichment (Jak2)
IPKTWYSAEQF [CD207_Y217] | 0.914 | 0.876 | 0.574 | 3.04 | 3.19 | 9.16 | 0.542 | 0.615 | 0.939 | 0.538 | 0.448 | 0.494 | 0.522 | 0.526 | 0.855 | 0.681
RVKTPYSLKRW [BMPR2_Y979] | 3.37 | 1.95 | 2.06 | 0.516 | 0.608 | 0.572 | 0.745 | 0.616 | 1.17 | 0.931 | 0.756 | 0.666 | 0.582 | 0.944 | 1.19 | 1.24
DYTEAYNPKIK [CLK1_Y305] | 0.584 | 0.813 | 1.43 | 0.453 | 0.422 | 0.419 | 0.596 | 0.483 | 0.913 | 0.592 | 0.358 | 0.624 | 0.456 | 0.678 | 1.02 | 0.641
NNIDYYKKTTN [FGFR2_Y657] | 0.603 | 1.02 | 0.459 | 0.527 | 0.543 | 0.437 | 0.764 | 0.492 | 0.703 | 0.495 | 0.6 | 0.456 | 0.633 | 0.517 | 0.616 | 0.524
PHQTIYSALMI [FGF23_Y70] | 0.598 | 0.68 | 0.495 | 4.45 | 5.93 | 13.1 | 12.8 | 10.4 | 3.94 | 1.61 | 20.3 | 1.88 | 12.7 | 20.6 | 1.26 | 1.7
QGIFGYHHHMQ [UFSP2_Y287_Y290H_YF] | 0.936 | 1.16 | 0.945 | 0.781 | 0.639 | 0.521 | 0.664 | 0.498 | 1.04 | 0.792 | 0.779 | 0.892 | 0.395 | 0.652 | 0.941 | 1.07
FSALDYKIFFF [WDPCP_Y210_L205F_YF] | 0.401 | 0.731 | 0.449 | 0.54 | 0.675 | 0.468 | 0.504 | 0.67 | 1.64 | 0.981 | 0.541 | 0.6 | 0.416 | 1.13 | 1.57 | 1.69
VFDMLYQVANL [USP24_Y1087_L1089V] | 1 | 1.16 | 0.769 | 5.28 | 2.75 | 2.78 | 4.24 | 4.11 | 1.06 | 0.923 | 11.7 | 0.943 | 2.92 | 2.06 | 1.79 | 0.863
RSFPSYYTSHV [NEFL_Y442] | 1.11 | 1.17 | 1.28 | 1.34 | 2.37 | 7.71 | 1.1 | 1.12 | 1.05 | 1.28 | 0.65 | 2.19 | 0.775 | 1.02 | 1.05 | 3.72
GDKKAYVRLAP [RPL23A_Y137_E133D] | 0.757 | 0.831 | 0.54 | 0.435 | 0.523 | 0.638 | 0.482 | 0.449 | 0.58 | 0.497 | 0.411 | 0.535 | 0.43 | 0.519 | 0.603 | 0.732
LFDHIYTTQSD [RET_Y928] | 0.796 | 0.925 | 0.583 | 2 | 1.28 | 1.96 | 5.93 | 4.92 | 3.19 | 3.56 | 6.22 | 2.9 | 7.45 | 0.821 | 2.46 | 1.81
HNLDFYKMTTN [FGFR3_Y648_K650M_YF] | 0.981 | 0.62 | 0.474 | 1.1 | 0.954 | 0.783 | 1.67 | 0.364 | 1.74 | 1.88 | 0.728 | 1.45 | 1.66 | 0.954 | 2.03 | 1.25
RLEGVYRNNID [PTEN_Y46] | 0.588 | 0.948 | 0.398 | 0.578 | 0.478 | 0.291 | 0.389 | 0.561 | 0.889 | 0.703 | 0.849 | 0.293 | 0.675 | 1.35 | 0.553 | 0.751
KGELRYMHSRV [ABCD1_Y281] | 1.33 | 1.38 | 1.27 | 0.348 | 0.396 | 0.378 | 0.377 | 0.48 | 0.746 | 0.44 | 0.375 | 0.428 | 0.303 | 0.517 | 0.568 | 0.618
IKNSGYISQYL [EIF2AK3_Y585_R588Q] | 0.969 | 0.939 | 0.628 | 0.375 | 0.414 | 0.374 | 0.39 | 0.406 | 0.783 | 0.458 | 0.323 | 0.443 | 0.427 | 0.435 | 0.593 | 0.617

Continued, in another order:

SH2 binding enrichment (SHP2-C SH2) | SH2 binding enrichment (Grb2 SH2) | SH2 binding enrichment (c-Src SH2) | Sequence | phosphorylation enrichment (EPHB2) | phosphorylation enrichment (EPHB1) | phosphorylation enrichment (MERTK) | phosphorylation enrichment (Hck) | phosphorylation enrichment (c-Src) | phosphorylation enrichment (Fes) | phosphorylation enrichment (FGFR3) | phosphorylation enrichment (Fer (mouse)) | phosphorylation enrichment (FGFR1) | phosphorylation enrichment (Fyn) | phosphorylation enrichment (c-Abl (mouse)) | phosphorylation enrichment (AncSZ) | phosphorylation enrichment (Jak2)
1.82 | 0.978 | 2.62 | DGDTRYSTFSE [TKTL1_Y318] | 0.487 | 0.609 | 0.451 | 0.559 | 0.5 | 0.879 | 0.669 | 0.481 | 0.41 | 0.467 | 0.764 | 0.837 | 0.849
1.64 | 1.96 | 1.41 | LLVVVYKFRCF [PSEN1_Y154_L153V_YF] | 0.45 | 0.446 | 0.463 | 0.462 | 0.455 | 1.3 | 0.676 | 0.471 | 0.446 | 0.359 | 1.19 | 0.949 | 0.707
2.21 | 0.948 | 0.588 | TNRSVYFKPSL [NUP153_Y382] | 0.369 | 0.453 | 0.455 | 0.551 | 0.511 | 0.595 | 0.447 | 0.433 | 0.448 | 0.421 | 0.556 | 0.667 | 0.66
0.628 | 0.881 | 1.44 | DPNQQYYIAMD [TBX15_Y159_H156N] | 0.719 | 0.875 | 1.65 | 0.613 | 0.812 | 0.992 | 2.95 | 0.487 | 3.98 | 0.566 | 0.571 | 1.12 | 0.959
0.799 | 0.881 | 0.677 | EWQQTYTFDSG [JUP_Y20_YF] | 0.485 | 0.494 | 0.668 | 0.78 | 5.44 | 0.904 | 1.02 | 0.425 | 0.965 | 3.03 | 0.546 | 1.06 | 1.02
0.775 | 1.06 | 0.613 | EVDETYVPKKF [ALB_Y521_E525K] | 0.372 | 0.685 | 0.404 | 0.446 | 0.408 | 0.952 | 0.518 | 0.371 | 0.385 | 0.454 | 0.607 | 0.947 | 1.01
0.761 | 1 | 0.5 | ARMTNYGLPRY [TSPAN12_Y138] | 0.588 | 0.463 | 0.497 | 0.554 | 0.534 | 0.739 | 0.441 | 0.576 | 0.495 | 0.619 | 0.66 | 0.576 | 0.606
0.529 | 0.849 | 0.456 | FAKTQYPDIFA [CRX_Y63_V66I_YF] | 0.373 | 0.426 | 0.489 | 0.387 | 0.415 | 0.922 | 0.528 | 0.517 | 0.378 | 0.434 | 0.542 | 0.667 | 0.483
0.775 | 0.719 | 0.461 | VMSMNYRVGAL [BCHE_Y174_V170M] | 0.592 | 0.578 | 0.416 | 0.447 | 0.484 | 0.878 | 0.573 | 0.438 | 0.485 | 0.462 | 0.686 | 0.767 | 0.715
0.561 | 0.596 | 0.327 | QGFDTYFGYLL [ARSB_Y165_R160Q] | 10.3 | 5.42 | 4.3 | 8.44 | 6.32 | 1.64 | 5.48 | 6.45 | 5.78 | 9.48 | 0.92 | 2.72 | 5.92
0.587 | 0.826 | 0.5 | QVMDGYPIPIG [MMP14_Y353_M355I] | 0.755 | 0.596 | 0.482 | 0.566 | 0.3 | 0.715 | 0.572 | 0.56 | 0.406 | 0.592 | 0.46 | 0.686 | 0.554
0.722 | 0.645 | 0.571 | HRGHLYLAIEF [TEK_Y899_Y897H_YF] | 1.67 | 1.78 | 1.64 | 1.5 | 2.63 | 8.12 | 1.79 | 1.38 | 1.41 | 1.49 | 9.68 | 3.67 | 6.33
0.735 | 0.75 | 0.457 | ITGNGYFFRVF [MYBPC3_Y1135_I1131T_YF] | 0.493 | 0.496 | 0.305 | 0.377 | 0.31 | 1.08 | 0.595 | 0.416 | 0.451 | 0.358 | 0.647 | 0.906 | 0.99
0.717 | 0.906 | 9.61 | DLRTGYSVPYG [TGM1_Y370_Y365D] | 0.411 | 0.409 | 0.399 | 0.459 | 0.384 | 0.665 | 0.592 | 0.456 | 0.553 | 0.392 | 0.568 | 0.721 | 0.663
